Legend:
[1] = biological target: H2AK119-biotinylated 185 bp nucleosome; test: FRET or BRET
KDM2A(2–685) (human) = KDM2A(2–685) (human) (UniProt Q9Y2K7); test: FRET or BRET

| fold reduction of binding affinity against wild-type KDM2A [1] [fold] | ratio of IC50 (147 bp over 185 bp nucleosome as competitor) (KDM2A(2–685) (human)) [fold] | Substance |
| --- | --- | --- |
| 20 |  | KDM2A(2–685) K99E/R105E/R128E/R152E (from UniProt Q9Y2K7 2-685) (domain or fragment) |
| 4 |  | KDM2A(2–685) R152E (from UniProt Q9Y2K7 2-685) (domain or fragment) |
|  | 10 | unmodified wild-type 147 bp nucleosome (complex) |
